Experiments:
acetylcholine receptor [1] = assay: SPR, peptide at 10 uM over immobilized acetylcholine receptor
acetylcholine receptor [2] = assay: SPR, AchR immobilized on chip, peptide at 10 uM
acetylcholine receptor [3] = assay: SPR, peptide at 10 µM on acetylcholine receptor
acetylcholine receptor [4] = assay: SPR, AchR immobilized on chip
acetylcholine receptor [5] = assay: SPR, AchR immobilised on chip, peptide 10 uM
acetylcholine receptor [6] = assay: SPR, AchR on chip, peptide 10 uM
acetylcholine receptor [7] = assay: SPR, receptor immobilized, peptide 10 uM

Row | Binder | Binding affinity (RU) (acetylcholine receptor [1]) | also measured
1 | RRLTKR [6mer-2-87] | 142 | –
2 | RRIYRK [6mer-2-95] | 142 | –
3 | KWIYKR [6mer-2-91] | 121 | –
4 | KSQYKR [6mer-2-85] | 137 | –
5 | KSRSKK [6mer-2-89] | 141 | –
6 | RQRSRR [6mer-2-99] | 151 | –
7 | RRRLKK [6mer-2-1] | – | Binding affinity (acetylcholine receptor [2]): 131 RU
8 | KGRTKR [6mer-2-90] | 133 | –
9 | RGVCRK [6mer-2-104] | 145 | –
10 | KQFRRK [6mer-2-86] | 126 | –
11 | RVVYKK [6mer-2-108] | 153 | –
12 | RRQYKR [6mer-2-80] | 148 | –
13 | KVYQKK [6mer-2-102] | 139 | –
14 | RRRCRR [6mer-2-100] | 142 | –
15 | KKTNKR [6mer-1-1199] | 39 | –
16 | RRQRR [5mer-73] | – | Binding affinity (RU) (acetylcholine receptor [3]): 179 RU; Binding affinity (RU) (acetylcholine receptor [4]): 179 RU
17 | KSFQRR [6mer-2-88] | 141 | –
18 | KRIQKK [6mer-2-72] | 144 | –
19 | RKACEK [6mer-1-1200] | 21 | –
20 | KRLLRK [6mer-2-70] | 126 | –
21 | RWVQRK [6mer-2-106] | 123 | –
22 | RWIYKR [6mer-2-74] | 136 | –
23 | RRVSRR [6mer-2-81] | 121 | –
24 | RGVYRK [6mer-2-107] | 144 | –
25 | RLYTKR [6mer-2-73] | 139 | –
26 | KQRYKK [6mer-2-84] | 139 | –

Row | Binder | Binding affinity (RU) (acetylcholine receptor [1]) | also measured
27 | RRGVRR [6mer-1-210] | – | Binding affinity (RU) (acetylcholine receptor [5]): 184 RU; Binding affinity (RU) (acetylcholine receptor [4]): 184 RU
28 | KWFLRK [6mer-2-69] | 139 | –
29 | KSQLKK [6mer-2-110] | 153 | –
30 | RGVQKK [6mer-2-82] | 124 | –
31 | RSYSR [5mer-311] | – | Binding affinity (RU) (acetylcholine receptor [4]): 167 RU; Binding affinity (RU) (acetylcholine receptor [6]): 167 RU
32 | RQLSKR [6mer-2-79] | 135 | –
33 | RQFYRK [6mer-2-97] | 154 | –
34 | KLIRRK [6mer-2-111] | 123 | –
35 | RLQQKR [6mer-2-112] | 142 | –
36 | RRATER [6mer-1-1198] | 28 | –
37 | KVVCKR [6mer-2-92] | 131 | –
38 | KQQTRR [6mer-2-77] | 123 | –
39 | RLICRK [6mer-2-101] | 154 | –
40 | RWRYKR [6mer-2-136] | – | Binding affinity (acetylcholine receptor [7]): 194 RU; Binding affinity (RU) (acetylcholine receptor [4]): 194 RU
41 | RRQSRK [6mer-2-76] | 142 | –
42 | RWQTRR [6mer-2-93] | 133 | –
43 | KWRQRK [6mer-2-96] | 154 | –
44 | RGFTRR [6mer-2-105] | 151 | –
45 | KQYQRR [6mer-2-83] | 135 | –
46 | KRYLKR [6mer-2-78] | 135 | –
47 | RVVTKK [6mer-2-103] | 136 | –
48 | RRQQRR [6mer-2-98] | 148 | –
49 | KLYTRK [6mer-2-75] | 133 | –
50 | KQVYKR [6mer-2-71] | 141 | –
51 | RRVYRK [6mer-2-109] | 144 | –
52 | RLYQRK [6mer-2-94] | 126 | –

The next lines start with results.

Row | Binding affinity (RU) (acetylcholine receptor [1]) | Binder | also measured
53 | 125 | RVITKK [6mer-2-122] | –
54 | 148 | RLFQRK [6mer-2-134] | –
55 | 139 | KSVLRK [6mer-2-129] | –
56 | 142 | KVQLRR [6mer-2-125] | –
57 | 121 | KLQYRK [6mer-2-114] | –
58 | 126 | KLQRKK [6mer-2-116] | –
59 | 148 | KWLYRR [6mer-2-126] | –
60 | 146 | RQFTKR [6mer-2-123] | –
61 | 126 | KWQLKR [6mer-2-124] | –
62 | 137 | KRVYRK [6mer-2-121] | –
63 | 135 | KWFSRR [6mer-2-118] | –
64 | 148 | KQQTKR [6mer-2-131] | –
65 | 145 | KRRLKK [6mer-2-133] | –
66 | 145 | KRYSRK [6mer-2-113] | –
67 | 148 | KRYTRK [6mer-2-117] | –
68 | 139 | KLYCKK [6mer-2-132] | –
69 | 147 | KSYYRR [6mer-2-128] | –
70 | 122 | RGVCRR [6mer-2-130] | –
71 | 136 | RLYLRK [6mer-2-127] | –
72 | 124 | RWFYKK [6mer-2-135] | –
73 | 146 | RRQCRK [6mer-2-120] | –
74 | 144 | KWQYRK [6mer-2-115] | –
75 | 139 | RSISKK [6mer-2-119] | –
